US5747660A, “Nucleic acid encoding prostaglandin F2α receptor regulatory protein” (priority 1995, dated 1998)
“And” between values parts separate entries of the source, which are not always exact repeats. Identical values can stand only once. Like-named read-outs stand apart in the source and are kept apart here.

Assays:
[1] = molecular target: prostaglandin F2α receptor (FP)
Protocol: [^3 H]PGF2α binding (DPM) was normalized to the average quantity of protein per culture dish (65 μg), and plotted against unlabeled PGF2α concentration.
For [^3 H]PGF2α binding experiments, the above electroporated cells were divided equally and cultured in six 35×10 mm culture dishes with 1.5 ml culture media each. […] Briefly, media was removed from the culture dishes, the dishes were washed 4 times in 1 L each of phosphate buffered saline (PBS, 10 mM phosphate), 150 mM NaCl, pH 7.0), and 0.35 ml of binding buffer (1×Hanks, 0.1% BSA, 2 mM MnCl2, 0.5 mM CaCl2, pH 6.0) containing either 2×10^-9 M [^3 H]PGF2α (total binding) or 2×10^-9 M [^3 H]PGF2α plus 2×10^-6 M unlabelled PGF2α (non-specific binding). The binding incubation was at 37° for 20 minutes. Following incubation, the binding buffer was removed, the dishes were washed 4 times in 1 L each of PBS, then 0.5 ml of 1.0M NaOH was added to each dish. Dishes were then incubated overnight at 37° C., the NaOH solution removed, neutralized with 0.5 ml of 1M HCL (made with 200 mM phosphate buffer pH 7.4), vortexed, and aliquots were analyzed for protein by the Bradford technique (1976) Anal. Biochem. 72:248-252, or analyzed for ^3 H content with a Beckman 6000 TA liquid scintillation counter (using Aquasol-2, New England Nuclear, Boston, Mass.; approximate counting efficiency 50-55%).
Saturation binding. A saturation binding experiment was performed to examine the effect of FPRP on FP. Scatchard analysis should discriminate between competitive and noncompetitive methods of FPRP action. [^3 H]PGF2α binding was assessed following transfection with either FP+pSG5 or FP+anti-sense FPRP (2 controls) and following transfection with FP+FPRP or FP+ dss FPRP (2 experimentals). Data are shown in FIG. 9A for unlabelled PGF2α inhibition of [^3 H]PGF2α binding and in FIG. 9B for the Scatchard transformation of this same data.

[2] = tested on: prostaglandin F2α receptor (FP); assay: Effect of intracellular messenger altering agents on [3H]PGF2α binding and on FPRP inhibition of it; assay type: cell-based
Protocol: In a third experiment, transfected cells were treated for 30 min with exposure to the following: phorbol 12-myristate 13-acetate 10^-8 M, prostaglandin E1, 10^-7 M, A23187 10^-6 M, okadaic acid 10^-6 M, or 8-Br-cAMP 10^-5 M (Table 4).
The effect of brefeldin A (3 μg/ml, 2 hr), chloroquine (100 μM, 6 hr) and tunicamysin (2.5 μg/ml, 20 hr) was determined.

[3] = molecular target: prostaglandin F2α receptor (FP); conditions: literature value; read-out: [^3 H]PGF2α binding affinity reported by Ito et al. (1994); cited from earlier work
[4] = tested on: prostaglandin F2α receptor (FP); remark: listed apart in the source
Protocol: Cells transfected with either FP and pSG5 or FP and FPRP were plated in normal media containing serum and at either 21 h, 6 h or 0 h prior to [^3 H]PGF2α binding analysis had their media replaced with serum deficient medium, in order to obviate any effects due to hormones or factors present in the added serum.

[5] = tested on: prostaglandin F2α receptor (FP); assay: [3H]PGF2α specific binding to COS cells cotransfected with FP cDNA and a test cDNA construct; assay type: cell-based, rat, mouse
[6] = tested on: COS cells (endogenous specific [3H]PGF2α binding); assay: [3H]PGF2α binding to COS cell cultures transfected with FPRP cDNA construct alone; assay type: cell-based; conditions: COS cells transfected with FPRP cDNA construct only, 24 h
Protocol: COS cells were electroporated, cultured for 24 h and analyzed for specific [^3 H]PGF2α binding. Total transfected DNA is indicated on the abscissa. Data points represent mean±standard deviation, n=3.
Methods. COS-1 cells were used for transient expression experiments. Briefly, 70-80% confluent cultures (grown in Ham's F-12 media plus 8% fetal bovine serum, with media replacement 24 hours prior to transfection)were harvested with a trypsin/EDTA solution (final concentration: 0.02% ethylenediaminetetracetic acid, 0.05% sodium bicarbonate, and 0.5% Enzart 40x trypsin), washed twice with culture media, then resuspended in ice cold culture media at approximately 1.66×10^7 cells per ml. Aliquots of 0.15 ml (2.5×10^6 cells) were placed in electroporation cuvettes (BioRad, Hercules, Calif.) along with plasmid DNA, placed on ice for 10 minutes, electroporated with a Bio Rad electroporater (settings: 250 μF, […], .infin..OMEGA., 0.4 cm cuvette), 1 ml of ice cold culture media was added and the cells were left on ice for 10 minutes before plating.
The binding incubation was at 37° for 20 minutes.

[7] = tested on: prostaglandin F2α receptor (FP); assay: Cotransfection of a third construct along with FP and FPRP, [3H]PGF2α binding; assay type: cell-based; conditions: FP + FPRP, no third construct; FP + pSG5 = 100
Source text: Therefore, a strategy based on cotransfection of a third construct (along with FP and FPRP) was pursued. These third party constructs included ones coding for the protease inhibitors alpha-l trypsin inhibitor and crmA, an inhibitor of cell death, bcl2, and few nonspecific control molecules including the vitamin D receptor, a secreted immunoglobulin molecule, and the empty parent vector pSG5 only. All groups and treatments were compared with control treatment of FP+pSG5 vs. FP+FPRP.

[8] = tested on: prostaglandin F2α receptor (FP); remark: listed apart in the source
Protocol: Models for FPRP interaction with FP were tested as follows. First, a conditioned media experiment was performed with either the pSGS vector, or the FPRP cDNA construct transfected into COS cells. Following plating and culture of these transfected cells for 24 hours the media in which the cells were grown was placed on cultures of cells transfected with FP. The cells transfected with FP and cultured with the conditioned medium for 4 hours were then analyzed for [^3 H]PGF2α binding. In a second experiment, FPRP or pSG5 were transfected as described above into one set of cells, FP alone into a second set of cells, and the cells co-cultured in the ratios shown in Table 3.
Briefly, COS cells were transfected with FP, pSG5, or FPRP, and plated. 24 h post transfection, media was removed from the pSG5 and FPRP transfected cultures, centrifuged 7 min at 1000×g, and added back to the FP culture media at the indicated ratios. Following 4 h of this media treatment, [^3 H]PGF2α binding was analyzed. As a control, FP and FPRP were cotransfected. For co-cultured cells, COS cells were transfected with FP, pSG5, or FPRP, mixed at a 1:1 ratio and cultured. As a control, cells were either transfected with FP or FP+FPRP.

[9] = control treatment (EtOH vehicle or Control), no agent

## CCCCC[C@H](O)/C=C/[C@@H]1[C@@H](C/C=C\CCCC(=O)O)[C@@H](O)C[C@H]1O [PGF2α, Prostaglandin F2α]
[1]; read-out: [^3 H]PGF2α binding affinity, FP + pSG5, asFPRP, FPRP or dssFPRP: all 4 treatments similar
  Kd: 8 nM
[2]; FP + FPRP transfected cells treated with the agent
  % Control [^3 H]PGF2α Binding, FP + FPRP: 40 ± 3%
[2]; FP + pSG5 transfected cells treated with the agent
  % Control [^3 H]PGF2α Binding, FP + pSG5: 73 ± 9%
[2]; FP transfected cells pretreated with the agent
  effect of agent on basal [^3 H]PGF2α binding: decreased subsequent basal FP binding
[2]; in presence of the agent at the concentration/time given
  % Inhibition (FPRP inhibition of [^3 H]PGF2α binding): 45%
[3]
  Kd: 25 nM

B1: FPRP: rat prostaglandin F2α receptor regulatory protein (SEQ ID NO:1), expressed from FPRP cDNA in pSG5, construct 232 (SEQ ID NO:10) (protein)
chain: MGRPAPRPLLLALLSLAVCRGRVVRVPAGTLVRVVGTELVIPCNVSDYDGPSEQNFDWSFSSSGSSFVELASTWEVGFPAQQYRERLQRGDILLRRTANDAVELHIKNVQPSDQGHYKCSTPSTDATVQGNYEDTMQVKVLADALVVGPSSRPPPGLSLREGEPFELRCIASTTSPLHTHLALRWELHRGPVHRSILALSHEGRFHPGPGYEQRYHSGDVRLDTVGSDAYRLSVARALSADQGSYRCVVSEWITEQGSWQEIQEKAVEVATVVIQPTALQLAVPRTVSVTEGKDLDLSCNITTDRVDDVRPEVTWYFKKTPDTSLLASHMLARLDRDSLVHSSPHVALSHVDTRSYHLLVRDVSKENSGYYLCLVALWAPGHNRSWHKVAEAMSAPSGVSVTWLEPEYQVYLNASKVPGFSDDPTELQCRVIDTKRVDAGVRLTVSWYYRMNRRNDDVVASELLAVMDGDWTLRYGERSKQRAQDGEFIFSKEHTDTFSFRIQRTTEEDRGSYYCVVSAWTRQRNSSWVKSKDVFSKPVNIFWASEDSVLVVKARQPKPFFAAGNTFEMTCKVSSKNIKSPRYSVLITAEKPVGDLSSPNETKYIISLDQDSVVKLENWTDASRVDGVVLEKVQEDEFRYRMYQTQVSDAGLYRCMVTAWSPIGGSLWREAATSLSNPIEIDFQTSGPIFNASVHSDTLSVTRGDLIKLFCIVTVDGAVLDPDDMAFDVSWFAVHSFGLDKAPILLSSLDRKGVVTTGQRDWKSTVSLERVSVLEFLLQVHGSEDQDFGNYYCSVTPWVRSPTGSWQREAEIHSRPIFITVKMDVLNAFKYPLLIGVGLSTVIRLLSCLIGYCSSHWCCKKEVRETRRERRRLMSMEMD
[1]; saturation binding experiment, FP + FPRP cotransfection
  inhibition of [^3 H]PGF2α binding to FP: approximately 60%
[1]; saturation binding, Scatchard analysis
  type of inhibition of [^3 H]PGF2α binding: non-competitive inhibitor
[2]; [9]
  % Control [^3 H]PGF2α Binding, FP + FPRP: 52 ± 3% and 37 ± 3%
  % Inhibition (FPRP inhibition of [^3 H]PGF2α binding): 48% and 63%
[4]; Serum Removal: t = 1 h
  % Control [^3 H]PGF2α Binding: 38 ± 7%
[4]; Serum Removal: t = -6 h
  % Control [^3 H]PGF2α Binding: 48 ± 4%
[4]; Serum Removal: t = -21 h
  % Control [^3 H]PGF2α Binding: 41 ± 3%
[4]; serum deficient medium 21 h, 6 h or 0 h prior to binding
  effect of growth in serum deficient media on percent of FPRP inhibition: did not alter
COS cells
  decrease of viability of the transfected cells: 20-60%
[5]; COS cells cotransfected with FP + the named DNA, FP alone = 100
  % CONTROL, [^3 H]PGF2α specific binding: 30-50%
[5]; COS cells nearly 100% confluent, media replaced ≈48 h prior to transfection
  inhibitory activity of FPRP on [^3 H]PGF2α binding: approximately 60%
[5]; Standard: 80% confluent cells, 40 μg/dish post-electroporation, binding assay at 24 h
  % CONTROL [^3 H]PGF2α BINDING (FPRP inhibitory activity): 30-50%
[5]; binding buffer of Weipz et al. (1992), pH 6.0
  % CONTROL [^3 H]PGF2α BINDING (FPRP inhibitory activity): 53 ± 8%
[5]; binding buffer: standard buffer pH 6.0
  % CONTROL [^3 H]PGF2α BINDING (FPRP inhibitory activity): 41 ± 5%
[5]; binding buffer: standard buffer pH 7.0
  % CONTROL [^3 H]PGF2α BINDING (FPRP inhibitory activity): 45 ± 3%
[5]; cotransfection with rFP or mFP
  effect on [^3 H]PGF2α binding to FP: inhibited rFP and mFP equally
[5]; density of cells post-electroporation: 40 μg/dish
  % CONTROL [^3 H]PGF2α BINDING (FPRP inhibitory activity): 40 ± 5%
[5]; density of cells post-electroporation: 20-30 μg/dish
  % CONTROL [^3 H]PGF2α BINDING (FPRP inhibitory activity): 30 ± 5%
[5]; density of cells post-electroporation: 60-80 μg/dish
  % CONTROL [^3 H]PGF2α BINDING (FPRP inhibitory activity): 43 ± 4%
[5]; density of cells prior to electroporation: 60-70% confluent
  % CONTROL [^3 H]PGF2α BINDING (FPRP inhibitory activity): 35 ± 3%
[5]; density of cells prior to electroporation: 80% confluent
  % CONTROL [^3 H]PGF2α BINDING (FPRP inhibitory activity): 40 ± 5%
[5]; density of cells prior to electroporation: 100% confluent
  % CONTROL [^3 H]PGF2α BINDING (FPRP inhibitory activity): 38 ± 4%
[5]; time between electroporation and binding: 24 hr
  % CONTROL [^3 H]PGF2α BINDING (FPRP inhibitory activity): 36 ± 3%
[5]; time between electroporation and binding: 48 hr
  % CONTROL [^3 H]PGF2α BINDING (FPRP inhibitory activity): 33 ± 3%
[6]
  effect of FPRP expression on [^3 H]PGF2α binding: marked, dose dependent decrease
[7]
  % Control [^3 H]PGF2α Binding: 37 ± 5%
[8]; FP + FPRP cotransfection pos. control of the conditioned media experiment
  % Control [^3 H]PGF2α Binding: 43 ± 5%
[8]; FP + FPRP cotransfection positive control of the co-culture experiment
  % Control [^3 H]PGF2α Binding: 45 ± 3%
[8]; FP cells + 1:2 media from FPRP transfection, 4 h
  % Control [^3 H]PGF2α Binding: 103 ± 10%
[8]; FP cells + 1:4 media from FPRP transfection, 4 h
  % Control [^3 H]PGF2α Binding: 112 ± 10%
[8]; FP cells + 1:8 media from FPRP transfection, 4 h
  % Control [^3 H]PGF2α Binding: 113 ± 11%
[8]; FP transfected cells co-cultured 1:1 with FPRP transfected cells
  % Control [^3 H]PGF2α Binding: 120 ± 10%
[8]; conditioned media or co-culture type experiments
  ability to inhibit [^3 H]PGF2α binding to FP: unable to inhibit
